{
  "source": "paper PMC3929611",
  "about": "“Generation of Recombinant Antibodies to Rat GABAA Receptor Subunits by Affinity Selection on Synthetic Peptides” (PLoS ONE, 2014)",
  "key": {"[1]": {"target": "T1, α1β2γ2 GABAA receptor expressed in Xenopus laevis oocytes (rat α1, rat β2 and human γ2 subunit sequences) (Rattus norvegicus (alpha1, beta2); Homo …, UniProt P62813;P63138;P18507)", "T1 construct": "GABAA receptor subunit α1, rat; GABAA receptor subunit β2, rat; GABAA receptor subunit γ2, human; also called intact GABAA receptor; GABAA receptors heterologously expressed by Xenopus laevis oocytes; source: Xenopus laevis oocytes injected with mRNA of each subunit, on the oocyte surface; copies: + +", "T1 sequence (P62813 28-455, chain 1 of 3)": "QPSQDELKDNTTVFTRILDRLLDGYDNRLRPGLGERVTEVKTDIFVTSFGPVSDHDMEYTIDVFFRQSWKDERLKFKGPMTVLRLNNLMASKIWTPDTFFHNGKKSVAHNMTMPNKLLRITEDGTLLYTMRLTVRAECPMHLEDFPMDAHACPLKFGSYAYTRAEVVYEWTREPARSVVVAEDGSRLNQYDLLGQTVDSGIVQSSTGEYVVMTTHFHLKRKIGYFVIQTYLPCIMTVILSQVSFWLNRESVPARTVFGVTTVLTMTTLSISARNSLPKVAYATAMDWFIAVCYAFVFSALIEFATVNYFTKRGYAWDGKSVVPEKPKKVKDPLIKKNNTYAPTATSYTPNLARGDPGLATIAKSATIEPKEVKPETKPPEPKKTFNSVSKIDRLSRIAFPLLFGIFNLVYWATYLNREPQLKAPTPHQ", "T1 sequence (P63138 26-474, chain 2 of 3)": "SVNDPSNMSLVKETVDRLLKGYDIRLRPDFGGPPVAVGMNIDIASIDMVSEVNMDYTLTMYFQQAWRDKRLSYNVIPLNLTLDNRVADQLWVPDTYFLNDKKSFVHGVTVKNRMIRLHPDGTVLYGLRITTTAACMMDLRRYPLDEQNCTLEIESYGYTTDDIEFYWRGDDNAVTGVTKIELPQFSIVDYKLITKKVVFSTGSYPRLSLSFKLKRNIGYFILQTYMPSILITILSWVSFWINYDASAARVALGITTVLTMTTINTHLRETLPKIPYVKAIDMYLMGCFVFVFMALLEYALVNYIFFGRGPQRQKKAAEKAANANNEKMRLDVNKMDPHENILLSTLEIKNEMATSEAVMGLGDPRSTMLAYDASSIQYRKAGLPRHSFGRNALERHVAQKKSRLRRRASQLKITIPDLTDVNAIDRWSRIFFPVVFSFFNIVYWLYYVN", "T1 sequence (P18507 40-475, chain 3 of 3)": "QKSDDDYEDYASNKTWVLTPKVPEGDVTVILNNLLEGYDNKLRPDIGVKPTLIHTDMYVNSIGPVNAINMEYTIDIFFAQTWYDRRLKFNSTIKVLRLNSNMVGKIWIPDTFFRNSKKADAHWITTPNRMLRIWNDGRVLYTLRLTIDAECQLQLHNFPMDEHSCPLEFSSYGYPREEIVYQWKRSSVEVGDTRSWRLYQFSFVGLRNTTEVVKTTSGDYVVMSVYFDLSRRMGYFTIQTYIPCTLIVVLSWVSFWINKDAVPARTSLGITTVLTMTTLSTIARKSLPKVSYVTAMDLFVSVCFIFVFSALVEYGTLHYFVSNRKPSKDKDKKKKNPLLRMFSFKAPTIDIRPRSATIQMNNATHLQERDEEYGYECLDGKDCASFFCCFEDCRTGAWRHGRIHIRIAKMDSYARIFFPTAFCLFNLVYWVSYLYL", "assay": "immunostaining of cells or tissue; Xenopus oocytes expressing α1β2γ2 GABAA receptors or non-expressing, blocked with 10% fetal bovine serum, incubated with scFv overnight at 16°C, detected with FITC-conjugated M2 anti-Flag, confocal microscopy", "settings": "one partner purified"}, "FITC-labeled β2 peptide": {"target": "T2, FITC-labeled β2 peptide (Rattus norvegicus (paper: rat/human))", "T2 construct": "GABAA receptor subunit β2, rat/human, residues 1-19; also called FITC-conjugated target peptide (β2); source: synthetic peptide, HPLC purified", "T2 chain": "{FITC′}-MWRVRKRGYFGIWSFPLII", "assay": "fluorescence polarisation; 6 µM FITC-α1 peptide or 4 µM FITC-β2 peptide with varying scFv (0-35 µM; G11 0-10 µM) or A10 scFv-Fc (0-1 µM) in PBS + 200 mM imidazole, overnight at 4°C or 2 h at RT", "settings": "both partners purified"}, "[2]": {"target": "T3, biotinylated β2 peptide (GABAA receptor β2 subunit peptide) (Rattus norvegicus (paper: rat/human), biotin at the N-terminus; C-terminal amide)", "T3 construct": "Serine-Glycine-Serine linker between the N-terminal biotin and the peptide; GABAA receptor subunit β2, rat/human, residues 1-19; also called beta 2; source: synthetic peptide", "T3 chain": "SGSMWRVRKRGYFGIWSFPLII", "assay": "SRU BIND Reader (label-free plate-based biosensor); biotinylated peptides (10 µg/mL) captured on streptavidin-coated BIND plates, blocked with PBST + 5% BSA, scFvs (0.008-17.5 µM) added in elution buffer, 1 h at RT; shift of peak wavelength against concentration", "settings": "both partners purified"}, "FITC-labeled α1 peptide": {"target": "T4, FITC-labeled α1 peptide (Rattus norvegicus)", "T4 construct": "GABAA receptor subunit α1, rat, residues 1-15; also called FITC-conjugated target peptide (α1); source: synthetic peptide, HPLC purified", "T4 chain": "{FITC′}-QPSQDELKDNTTVFT", "assay": "fluorescence polarisation; 6 µM FITC-α1 peptide or 4 µM FITC-β2 peptide with varying scFv (0-35 µM; G11 0-10 µM) or A10 scFv-Fc (0-1 µM) in PBS + 200 mM imidazole, overnight at 4°C or 2 h at RT", "settings": "both partners purified"}, "[3]": {"target": "T5, biotinylated α1 peptide (GABAA receptor α1 subunit peptide) (Rattus norvegicus, SMILES …)", "T5 construct": "Serine-Glycine-Serine linker between the N-terminal biotin and the peptide; GABAA receptor subunit α1, rat, residues 1-15; also called alpha 1; source: synthetic peptide", "T5 chain": "Biotin-SGSQPSQDELKDNTTVFT-NH2", "assay": "SRU BIND Reader (label-free plate-based biosensor); biotinylated peptides (10 µg/mL) captured on streptavidin-coated BIND plates, blocked with PBST + 5% BSA, scFvs (0.008-17.5 µM) added in elution buffer, 1 h at RT; shift of peak wavelength against concentration", "settings": "both partners purified"}, "[4]": {"target": "T6, MBP-α1 peptide fusion protein (Rattus norvegicus)", "T6 construct": "GABAA receptor subunit α1, rat, residues 1-15, inserted at the C-terminus of the MBP gene in pAT224; also called MBP-fusion protein; source: E. coli, purified (His60 Ni Superflow resin); not shown: MBP, N-terminal, kept", "T6 chain": "QPSQDELKDNTTVFT", "assay": "far-Western, overlay or dot blot; dot blot; 1 µg to 0.0075 µg MBP-fusion protein adsorbed on PVDF membrane, about 10 nM A10 scFv or A10 scFv-Fc overnight at 4°C, detected with α-Flag-800CW", "settings": "both partners purified"}, "[5]": {"target": "T7, GABAA receptor α1 subunit, native, in mouse retina (Mus musculus C57BL/6J, UniProt P62812)", "T7 construct": "GABAA receptor subunit α1, mouse, within native receptors of the retina; Tissue fixed in 4% paraformaldehyde; also called native GABAA receptors in the mouse retina; source: endogenous, C57BL/6J mouse retina, fixed cryosections", "T7 sequence (P62812 28-455)": "as the sequence (P62813 28-455, chain 1 of 3) above", "assay": "immunostaining of cells or tissue; 16 µm cryosections of paraformaldehyde-fixed mouse retina, biotinylated scFv, detected with Cy5-conjugated streptavidin, confocal microscopy", "settings": "one partner purified"}},
  "note": "Primed or numbered codes have the meaning given here. Ends that are not written are not given here. * marks the point of attachment. Biotin = O=C1N[C@H]2[C@H](CS[C@H]2CCCCC(=O)*)N1; FITC′ = fluorescein isothiocyanate",
  "data": [
    {"binder": "G8 scFv (anti-β2 subunit scFv), soluble protein (scFv, V domains shown, human scFv from a naive phage-display library, order VH-linker-VL; source: P. pastoris X33, secreted, purified (Ni-NTA)) VH: EVQLVQSGAEVKKPGATVKISCKVSGYTFTDYYMHWVQQAPGKGLEWMGLVDPEDGETIYAEKFQGRVTITADTSTDTAYMELSSLRSEDTAVYYCATTPPHDYYDSSGLDYWGQGTLVTVSS VL: DIQMTQSPSSVSASVGDRVTITCRASQGINRWLAWYQQKPGKAPKLLIYAASNLQSGVPSRFSGSGSGTDFSLTISSLQPEDFATYYCQQSYSPPSTFGGGTKLEIK", "values": [
      {"measurement": "binding result", "setting": "[1]", "result": "binds"},
      {"measurement": "Kd", "setting": "FITC-labeled β2 peptide", "result": 970, "unit": "nM"},
      {"measurement": "Kd", "setting": "[2]", "result": 1600, "unit": "nM"}
    ]},
    {"binder": "A10 scFv (anti-α1 subunit-specific scFv), soluble protein (scFv, V domains shown, human scFv from a naive phage-display library, order VL-linker-VH; also called scFv A10; anti-α1 scFv; source: P. pastoris X33, secreted, purified (Ni-NTA)) VH: EVQLVQSGAEVKKPGASVKVSCKASGYTFTSYYMHWVRQAPGQGLEWMGIINPSGGSTSYAQKFQGRVTMTRDTSTSTVYMELSSLRSEDTAVYYCARDGWGGSSFLDYWGQGTLVTVSS VL: SYELTQPPSVSVSPGQTARITCSGDALPKKYAYWYQQKSGQAPVLVIYEDSKRPSGIPERFSGSSSGTMATLTISGAQVEDEADYYCYSKDNTGYQMVFGGGTKLTVL", "values": [
      {"measurement": "binding result", "setting": "[1]", "result": "binds"},
      {"measurement": "Kd", "setting": "FITC-labeled α1 peptide", "result": 3500, "unit": "nM"},
      {"measurement": "Kd", "setting": "[3]", "result": 2400, "unit": "nM"}
    ]},
    {"binder": "A10 scFv-Fc (dimeric scFv-Fc version of A10) (Fc fusion, human, as the scFv of m1; order VL-linker-VH; also called A10-Fc; scFv-Fc A10; source: FreeStyle 293F cells, transiently transfected, secreted, purified (His60 Ni Superflow resin); not shown: Fc (human IgG), C-terminal, kept; 3x Flag, C-terminal, kept) VH: EVQLVQSGAEVKKPGASVKVSCKASGYTFTSYYMHWVRQAPGQGLEWMGIINPSGGSTSYAQKFQGRVTMTRDTSTSTVYMELSSLRSEDTAVYYCARDGWGGSSFLDYWGQGTLVTVSS VL: SYELTQPPSVSVSPGQTARITCSGDALPKKYAYWYQQKSGQAPVLVIYEDSKRPSGIPERFSGSSSGTMATLTISGAQVEDEADYYCYSKDNTGYQMVFGGGTKLTVL", "values": [
      {"measurement": "fold increase in dot-blot sensitivity over the scFv", "setting": "[4]", "result": "~10", "unit": "fold"},
      {"measurement": "Kd", "setting": "FITC-labeled α1 peptide", "result": 26, "unit": "nM"}
    ]},
    {"binder": "A10 scFv, biotinylated in vitro (scFv, V domains shown, as the scFv of m1; order VL-linker-VH; The same protein as m1, chemically biotinylated for staining of retinal cryosections; also called α1-specific scFv; source: P. pastoris X33, secreted, purified (Ni-NTA)) VH: EVQLVQSGAEVKKPGASVKVSCKASGYTFTSYYMHWVRQAPGQGLEWMGIINPSGGSTSYAQKFQGRVTMTRDTSTSTVYMELSSLRSEDTAVYYCARDGWGGSSFLDYWGQGTLVTVSS VL: SYELTQPPSVSVSPGQTARITCSGDALPKKYAYWYQQKSGQAPVLVIYEDSKRPSGIPERFSGSSSGTMATLTISGAQVEDEADYYCYSKDNTGYQMVFGGGTKLTVL", "values": [
      {"measurement": "binding result", "setting": "[5]", "result": "binds"}
    ]}
  ]
}
